Several values for one entry are separate records, joined by “and”; a condition that tells them apart may be missing. Equal values may be shown once. Read-outs that look alike come from different tables or passages of the source. Bridge positions count the residues as written; N and C are the ends. Square brackets hold non-standard residues; d marks the D form. Ends that are not written are not given here. PhLac = O=C(O)[C@@H](O)Cc1ccccc1
Columns and labels:
[1] = target: T1, human glucagon receptor (human, UniProt P47871 26-477); test: cell-based or functional assay
T1 sequence (P47871 26-477): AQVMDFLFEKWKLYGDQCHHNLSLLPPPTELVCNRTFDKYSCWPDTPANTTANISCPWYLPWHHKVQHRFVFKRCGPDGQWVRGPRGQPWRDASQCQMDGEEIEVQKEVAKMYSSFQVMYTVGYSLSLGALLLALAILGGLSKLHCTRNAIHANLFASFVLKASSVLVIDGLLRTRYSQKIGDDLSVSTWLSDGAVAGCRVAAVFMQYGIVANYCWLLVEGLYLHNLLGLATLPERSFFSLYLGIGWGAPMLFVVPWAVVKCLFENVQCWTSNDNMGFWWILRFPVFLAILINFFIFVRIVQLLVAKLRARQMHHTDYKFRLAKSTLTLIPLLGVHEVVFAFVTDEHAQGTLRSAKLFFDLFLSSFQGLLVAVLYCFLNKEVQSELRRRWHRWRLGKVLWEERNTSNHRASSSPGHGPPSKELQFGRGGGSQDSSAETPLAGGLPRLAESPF

[2] = target: T2, human GLP-1 receptor (human, UniProt P43220 24-463); test: cell-based or functional assay
Target sequence in this assay (P43220 24-463): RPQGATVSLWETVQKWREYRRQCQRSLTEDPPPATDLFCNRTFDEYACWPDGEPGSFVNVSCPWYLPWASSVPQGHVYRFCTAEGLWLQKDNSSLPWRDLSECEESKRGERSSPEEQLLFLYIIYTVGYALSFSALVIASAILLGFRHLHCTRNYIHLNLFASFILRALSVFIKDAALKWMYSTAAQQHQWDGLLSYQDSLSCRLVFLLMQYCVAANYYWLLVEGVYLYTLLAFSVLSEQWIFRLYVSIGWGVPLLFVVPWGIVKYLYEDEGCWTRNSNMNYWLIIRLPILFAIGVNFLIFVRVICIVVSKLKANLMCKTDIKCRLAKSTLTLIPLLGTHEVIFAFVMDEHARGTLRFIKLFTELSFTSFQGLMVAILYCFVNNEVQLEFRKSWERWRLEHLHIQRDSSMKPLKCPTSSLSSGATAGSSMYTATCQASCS

[3] = target: T1, human glucagon receptor; test: cell-based or functional assay; remark: listed apart in the source
[4] = target: T2, human GLP-1 receptor; test: cell-based or functional assay; remark: listed apart in the source
[5] = target: T1, human glucagon receptor; test: cell-based or functional assay; remark: listed apart in the source
[6] = target: T2, human GLP-1 receptor; test: cell-based or functional assay; remark: listed apart in the source
[7] = target: T1, human glucagon receptor; test: cell-based or functional assay; remark: listed apart in the source
[8] = target: T2, human GLP-1 receptor; test: cell-based or functional assay; remark: listed apart in the source
[9] = target: T1, human glucagon receptor; test: cell-based or functional assay; remark: listed apart in the source
[10] = target: T2, human GLP-1 receptor; test: cell-based or functional assay; remark: listed apart in the source
[11] = target: T1, human glucagon receptor; test: cell-based or functional assay; remark: listed apart in the source
[12] = target: T2, human GLP-1 receptor; test: cell-based or functional assay; remark: listed apart in the source
[13] = target: T1, human glucagon receptor; test: cell-based or functional assay; remark: listed apart in the source
[14] = target: T2, human GLP-1 receptor; test: cell-based or functional assay; remark: listed apart in the source
[15] = target: T2, human GLP-1 receptor; test: cell-based or functional assay; remark: listed apart in the source
[16] = target: T1, human glucagon receptor; test: cell-based or functional assay; remark: listed apart in the source
[17] = target: T2, human GLP-1 receptor; test: cell-based or functional assay; remark: listed apart in the source
[18] = target: T1, human glucagon receptor; test: cell-based or functional assay; remark: listed apart in the source
[19] = target: T2, human GLP-1 receptor; test: cell-based or functional assay; remark: listed apart in the source
[20] = target: T1, human glucagon receptor; test: cell-based or functional assay; remark: listed apart in the source
[21] = target: T2, human GLP-1 receptor; test: cell-based or functional assay; remark: listed apart in the source
[22] = target: T1, human glucagon receptor; test: cell-based or functional assay; remark: listed apart in the source
[23] = target: T1, human glucagon receptor; test: cell-based or functional assay; remark: listed apart in the source
[24] = target: human GLP-1 receptor (human) (UniProt P43220); test: cell-based or functional assay
Sequence of human GLP-1 receptor (human) (P43220 24-463): as above

[25] = target: human glucagon receptor (human) (UniProt P47871); test: cell-based or functional assay
Sequence of human glucagon receptor (human) (P47871 26-477): as the sequence (P47871 26-477) above

[26] = target: human GLP-1 receptor (human) (UniProt P43220); test: cell-based or functional assay; remark: listed apart in the source
[27] = target: human glucagon receptor (human) (UniProt P47871); test: cell-based or functional assay; remark: listed apart in the source
[28] = target: T1, human glucagon receptor; test: cell-based or functional assay; remark: listed apart in the source
[29] = target: T1, human glucagon receptor; test: cell-based or functional assay; remark: listed apart in the source
[30] = target: T1, human glucagon receptor; test: SPA competition vs 125I-glucagon, receptor membranes
[31] = target: T1, human glucagon receptor; test: as above; remark: listed apart in the source
[32] = target: T1, human glucagon receptor; test: as above; remark: listed apart in the source
[33] = target: T1, human glucagon receptor; test: cell-based or functional assay; remark: listed apart in the source
[34] = target: T1, human glucagon receptor; test: SPA competition vs 125I-glucagon, receptor membranes; remark: listed apart in the source
[35] = target: T1, human glucagon receptor; test: as above; remark: listed apart in the source
[36] = target: T1, human glucagon receptor; test: as above; remark: listed apart in the source
[37] = target: T1, human glucagon receptor; test: cell-based or functional assay; remark: listed apart in the source
[38] = target: T2, human GLP-1 receptor; test: cell-based or functional assay; remark: listed apart in the source
[39] = target: T1, human glucagon receptor; test: cell-based or functional assay; remark: listed apart in the source
[40] = target: T2, human GLP-1 receptor; test: cell-based or functional assay; remark: listed apart in the source

Molecule: [PLA6, E9, K12E16(Lactam)] glucagon(6-39) (peptide)
- Glu IC50 [1]: 72 nM
- Glucagon IC50 [1]: 72 nM
- GLP-1 EC50 [2]: 6 nM

B1: [Thr5-O-PLA6,E9]Glucagon(2-29) (peptide)
peptide: SQGTXTSEYSKYLDSRRAQDFVQWLMNT
modifications: depsipeptide bond between Thr5 and PLA6; C-terminal amide
- Glucagon antagonism IC50 (inhibit 0.5nM G) [3]: 6.49 nM
- GLP-1 agonism EC50 [4]: 1310 nM

B2: [PLA6, E16K20(lactam), D28]G(6-29) (peptide)
peptide: [PhLac]TSDYSKYLDERRAKDFVQWLMDT-NH2
modifications: lactam 11-15
- Glucagon IC50 [5]: 6 nM
- GLP-1 EC50 [6]: 4 nM
- Glucagon antagonism IC50 (inhibit 0.2-0.8 nM glucagon) [7]: 11.7 nM and 5.5 nM
- GLP-1 agonism EC50 [8]: 6.9 nM and 4.2 nM
- Glucagon antagonism IC50 (inhibit 0.2-0.8 nM glucagon) [9]: 11.7 nM and 5.5 nM
- GLP-1 agonism EC50 [10]: 6.9 nM and 4.2 nM
- Glucagon antagonism IC50 (inhibit 0.8 nM glucagon) [11]: 13.7 nM
- GLP-1 agonism EC50 [12]: 10.6 nM
- Glucagon antagonism IC50 (inhibit 0.8 nM glucagon) [13]: 13.7 nM
- GLP-1 agonism EC50 [14]: 10.6 nM
- GLP-1 agonism EC50 [15]: 20.7 nM
- Glucagon antagonism IC50 (inhibit 0.4 nM glucagon) [16]: 4.14 nM and 7.99 nM
- GLP-1 agonism EC50 [17]: 48 nM
- Glucagon antagonism IC50 (inhibit 0.8 nM glucagon) [18]: 20.3 nM
- GLP-1 agonism EC50 [19]: 18.2 nM

B3: Glucagon R12 K29 (peptide)
peptide: HSQGTFTSDYSRYLDSRRAQDFVQWLMNK
- cAMP Induction EC50 [20]: 0.81 nM
- cAMP Induction EC50 [21]: 0.41 nM

B4: [Glu^9]Glucagon(aa4-29)-NH2 (peptide)
peptide: GTFTSEYSKYLDSRRAQDFVQWLMNT-NH2
notes: also called peptide no
- cAMP Inhibition IC50 [22]: 128 nM
- cAMP pA2 [23]: 7.05

B5: D9, K12E16(Lactam) glucagon(6-39) (peptide)
peptide: FTSDYSKYLDERRAQDFVQWLMNTGPSSGAPPPS
modifications: lactam bridge Lys12-Glu16; C-terminal amide
- GLP-1 EC50 [24]: 119 nM
- Glu IC50 [25]: 828 nM
- GLP-1 EC50 [26]: 18 nM
- Glucagon IC50 [27]: 828 nM

B6: [PLA^6, E^9]Glucagon(aa6-29)-NH2 (peptide)
peptide: [PhLac]TSEYSKYLDSRRAQDFVQWLMNT-NH2
notes: also called [PLA6, E9]; G(6-29); [PLA6, E9]Glucagon(6-29)
- IC50 (cAMP, inhibit 0.1 nM Glucagon) [28]: 2.39 nM
- IC50 (cAMP, inhibit 0.2 nM Glucagon) [28]: 42.4 nM
- IC50 (cAMP, inhibit 0.8 mM Glucagon) [29]: 64.8 nM
- Glucagon antagonism IC50 (inhibit 0.8 nM glucagon) [18]: 94.7 nM
- GLP-1 agonism EC50 [19]: 901 nM
- Glucagon antagonism IC50 (inhibit 0.5nM G) [3]: 23.8 nM
- fold increase of affinity relative to the native Phe6 analog [30]: 3 fold
- IC50 [31]: 12.3 nM
- IC50 [32]: 12.3 nM

B7: [Glu^9]Glucagon(aa6-29)-NH2 (peptide)
peptide: FTSEYSKYLDSRRAQDFVQWLMNT-NH2
notes: also called [E^9]Glucagon(aa6-29)-NH2; peptide no; 11
- cAMP Inhibition IC50 [22]: 97 nM
- cAMP (I/A)50 inhibition index [23]: 486
- cAMP pA2 [23]: 7.16
- cAMP IC50 [33]: 97.2 nM
- cAMP pA2 [33]: 7.16
- IC50 [34]: 36 nM
- IC50 [35]: 36.4 nM
- IC50 [36]: 36.4 nM

B8: [PLA6, K12E16(lactam), D28]G(6-29) (peptide)
peptide: [PhLac]TSDYSKYLDERRAQDFVQWLMDT-NH2
modifications: lactam 7-11; N-terminus assumed
SMILES: CSCC[C@H](NC(=O)[C@H](CC(C)C)NC(=O)[C@H](Cc1c[nH]c2ccccc12)NC(=O)[C@H](CCC(N)=O)NC(=O)[C@@H](NC(=O)[C@H](Cc1ccccc1)NC(=O)[C@H](CC(=O)O)NC(=O)[C@H](CCC(N)=O)NC(=O)[C@H](C)NC(=O)[C@H](CCCNC(=N)N)NC(=O)[C@H](CCCNC(=N)N)NC(=O)[C@@H]1CCC(=O)NCCCC[C@H](NC(=O)[C@H](CO)NC(=O)[C@H](Cc2ccc(O)cc2)NC(=O)[C@H](CC(=O)O)NC(=O)[C@H](CO)NC(=O)[C@@H](NC(=O)[C@@H](O)Cc2ccccc2)[C@@H](C)O)C(=O)N[C@@H](Cc2ccc(O)cc2)C(=O)N[C@@H](CC(C)C)C(=O)N[C@@H](CC(=O)O)C(=O)N1)C(C)C)C(=O)N[C@@H](CC(=O)O)C(=O)N[C@H](C(N)=O)[C@@H](C)O
- Glucagon IC50 [37]: 63 nM
- GLP-1 EC50 [38]: 177 nM
- Glucagon IC50 [5]: 13 nM
- GLP-1 EC50 [6]: 21 nM
- Glucagon antagonism IC50 (inhibit 0.2-0.8 nM glucagon) [7]: 58.3 nM
- GLP-1 agonism EC50 [8]: 38.5 nM
- Glucagon antagonism IC50 (inhibit 0.2-0.8 nM glucagon) [9]: 58.3 nM
- GLP-1 agonism EC50 [10]: 38.5 nM
- Glucagon antagonism IC50 (inhibit 0.2-0.8 nM glucagon) [39]: 58.3 nM
- GLP-1 agonism EC50 [40]: 38.5 nM

From patent US20110098217A1 (INDIANA UNIVERSITY RESEARCH AND TECHNOLOGY, published 2011)
